The record followed here is patent US20170065702A1.

Like-named read-outs stand apart in the source and are kept apart here. A value given as a limit tells only on which side of the number the result lay.

Experiment [1] deals with Marburg Ravn GP pin peptide … (Marburg virus, Ravn strain).
Experiment [2] shares this target. The experiment can be described thus: pin peptide ELISA, pin D4, supernatant diluted 1/5, read at 1 hour. On the technique in general: In an ELISA, binding on a coated surface is turned into a signal by an enzyme label.
For experiment [3] the target is unchanged. The experiment can be described thus: pin peptide ELISA, pin D5, supernatant diluted 1/5, read at 1 hour.
The target is the same in experiment [4]. The experiment can be described thus: pin peptide ELISA, pin D6, supernatant diluted 1/5, read at 1 hour.
For experiment [5] the target is unchanged. The experiment can be described thus: pin peptide ELISA, pin printed as D6 beside … (SEQ ID NO: 195), read at 1 hour.

B1: CAN30G5 (antibody, V domains shown)
VH: EVQLVESGGGLVQPKGSLKLSCAASGFAFNSYAMHWVCQAPGKGLEWVARIRIKSGNYATSYAGSVTDRFTVSRDDSQNLFYLQMNNLKTEDTAMYYCVREWEGAMDYWGQGTSVTVSS
VL: DIVLTQSPLSLPVSLGDQASISCRSSQSLVHSNGNTYLHWYLQKPGQSPNLLIYKVSNRFSGVPDRFSGSGSGTDFTLKISRVEAEDLGVYFCSQSTHVPWTFGGGTKLEIK
As for B1, the results for the Absorbance (1 hour) in experiment [1] and in experiment [2] were > 3.9 absorbance and 0.631 absorbance, respectively.

B2: CAN30G2 (antibody, V domains shown)
VH: DVQLVESGGGLVQPGGSRKLSCTASGFTFSSFGMHWVRQAPEKGLEWVAYISSGSSKIYYADTVKGRFTISRDNPKNTLFLQMTSLRSEDTAMYYCARGWYEGAWFAYWGQGTLVTVSA
VL: DVLMTQTPLSLPVSLGDQASISCRSSQSIVHSNGDTYLEWYLQKPGQSPKLLIYKVSNRFSGVPDRFSGSGSGTDFTLRISRVEAEDLGVYYCFQGSHFPWTFGGGTKLEIK
In the case of B2, the Absorbance (1 hour) in experiment [2] turned out to be 0.848 absorbance; in experiment [3], 0.373 absorbance.

B3: CAN30G3 (antibody, V domains shown)
VH: QVQLKESGPGLVAPSQSLSITCTVSGFSLTDYGITWIRQPPGKGLEWLGVIWGGGSAYYNLVLKSRLSISKDNSKSQVFLKMNSLQTDDTAMYYCAKHRTLITTAMDYWGQGISVTVSS
VL: DVLMTQTPLSLPVSLGDQASISCRSSQNIVHSNGNTYLEWYLQKSGQSPKLLIYKVSNRFSGVPDRFSGSGSGTDFTLKISRVEAEDLGVYYCFQGSHFPWTFGGGTKLEIK
With B3, the Absorbance (1 hour) in experiment [3] stood at 1.84 absorbance; in experiment [4], 1.12 absorbance.

B4: CAN30G4 (antibody, V domains shown)
VH: EVKLVESGGGLVKSGGSLKLSCAVSGFTFSTYAMSWVRQIPEKRLEWVATISNGGSYIYYSDSVKGRFTISRDNAKNTLYLQMSSLRSEDTAMYYCARHRESYRYDWFAYWGQGTLVTVSA
VL: DVLMTQTPLSLPVSLGDQASISCRSSQNIVHSDGNTYLEWYLQKPGQSPKLLIYKFSNRFSGVPDRFSGSGSGTDFTLKISRVEAEDLGVYYCFQGSHVPPTFGAGTKLELK
On to B4, for which the Absorbance (1 hour) in experiment [1] was > 3.9 absorbance; in experiment [3], 1.97 absorbance.

B5: CAN54G2 (antibody, V domains shown)
VH: QVQLQQSGTELVRPGTSVKISCKASGYDFTNFWLGWIKQRPGHGLEWIGDIYPGGDNTYYNEKFKGKVTLTADKSSNTAYMQFSSLTSEDSAVYFCFMILYTLDYWGQGTSVTVSS
VL: not shown
In experiment [5], B5 yielded an Absorbance (1 hour) of 1.85 absorbance.
